Numbering of substitutions follows the chain as printed.
B1: Db-Fc 1 (Fc fusion)
VH: EVQLVESGGGLVQPGGSLRLSCAASGFNLYSYYIHWVRQAPGKGLEWVASISPYYSYTYYADSVKGRFTISADTSKNTAYLQMNSLRAEDTAVYYCARHGYGAMDYWGQGTLVTVSS
VL: DIQMTQSPSSLSASVGDRVTITCRASQSVSSAVAWYQQKPGKAPKLLIYSASSLYSGVPSRFSGSRSGTDFTLTISSLQPEDFATYYCQQSSYSLITFGQGTKVEIK
notes: VL domain of clone 1 (human framework of the Db library); Gly5 linker between VL and VH; VH domain of clone 1; IMGT numbering, heavy chain; Diabody-Fc fusion (VL-Gly5-VH-Fc); Protein-A purified preparation: mainly the dimeric Db-Fc, with a minor earlier-eluting SEC peak (putative Tb-Fc2); also called Db 1; VL–VH 1; source: Expi293, transient expression, purified (rProtein-A); not shown: Fc, …
B2: Db-Fc 1.1 (Fc fusion)
VH: B1 VH with Y30R, I34M
VL: B1 VL
notes: VL domain of variant 1.1; Gly5 linker between VL and VH; VH domain of variant 1.1; Diabody-Fc fusion; >99% eluted as the Db-Fc form by SEC; Called Db-Fcmix 1.1 where not fractionated by preparative SEC; also called variant 1.1; Db-Fcmix 1.1; source: Expi293, transient expression, purified (rProtein-A); not shown: Fc, C-terminal, kept
B3: Db-Fc 1.2 (Fc fusion)
VH: B1 VH with Y30R, I34M, S52A, Y55H, S56G, M104L
VL: B1 VL with Y93N, S94F
notes: VL domain of variant 1.2; Gly5 linker between VL and VH; VH domain of variant 1.2; Diabody-Fc fusion; nearly homogeneous Db-Fc peak by SEC; In vivo used both as unfractionated mixture and as the Db-Fc fraction from preparative SEC; also called variant 1.2; Db-Fcmix 1.2; source: Expi293, transient expression, purified (rProtein-A); not shown: Fc, C-terminal, kept
B4: Db-Fc 2 (Fc fusion)
VH: B1 VH with Y30S, G100S, G102A, M104L
VL: DIQMTQSPSSLSASVGDRVTITCRASQSVSSAVAWYQQKPGKAPKLLIYSASSLYSGVPSRFSGSRSGTDFTLTISSLQPEDFATYYCQQAYWPITFGQGTKVEIK
notes: VL domain of clone 2 (human framework of the Db library); Gly5 linker between VL and VH; VH domain of clone 2; Diabody-Fc fusion (VL-Gly5-VH-Fc); Protein-A purified preparation: mainly the dimeric Db-Fc, with a minor earlier-eluting SEC peak; also called Db 2; VL–VH 2; source: Expi293, transient expression, purified (rProtein-A); not shown: Fc, C-terminal, kept
B5: Db-Fc 1.3 (Fc fusion)
VH: B1 VH with Y30R, I34M, Y54H, S56G, G102S
VL: B1 VL with Y93D, I96F
notes: VL domain of variant 1.3; derived from the library on Db 1.1 (PDB 9NWU); Gly5 linker between VL and VH; VH domain of variant 1.3; the fraction is named in the readout of each functional row; also called variant 1.3; VL–VH 1.3; source: Expi293, transient expression, purified (rProtein-A); fractions by preparative SEC; not shown: Fc, C-terminal, kept

How the values were obtained:
[1] = target: human EPOR, endogenous on TF-1 cells (Homo sapiens (TF-1 cells), UniProt P19235); test: cell-based or functional assay
human EPOR, endogenous on TF-1 cells, sequence (P19235 25-508): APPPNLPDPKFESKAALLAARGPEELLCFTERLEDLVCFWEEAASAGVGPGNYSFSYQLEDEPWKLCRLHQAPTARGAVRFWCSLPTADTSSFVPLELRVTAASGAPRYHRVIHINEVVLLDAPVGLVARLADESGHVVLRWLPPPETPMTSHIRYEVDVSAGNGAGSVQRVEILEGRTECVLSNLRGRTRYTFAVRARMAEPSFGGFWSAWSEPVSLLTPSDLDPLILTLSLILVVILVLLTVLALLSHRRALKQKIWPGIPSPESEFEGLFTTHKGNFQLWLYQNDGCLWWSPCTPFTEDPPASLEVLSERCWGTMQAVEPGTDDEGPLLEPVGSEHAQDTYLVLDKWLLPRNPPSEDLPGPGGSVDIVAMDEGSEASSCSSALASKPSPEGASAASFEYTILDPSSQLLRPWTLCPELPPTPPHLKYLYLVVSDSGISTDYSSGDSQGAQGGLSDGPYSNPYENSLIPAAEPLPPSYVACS

His-tagged ECD of CD131 = target: T1, His-tagged ECD of CD131 (Homo sapiens (assumed), UniProt P32927); test: ELISA; His-tagged ECDs of EPOR, CD131 or EPHB4 tested against Db-Fc protein; conditions: both partners purified
T1 construct: β-common cytokine receptor (β-CR, CD131), ectodomain; also called β-common cytokine receptor; β-CR
T1 sequence (P32927 17-443): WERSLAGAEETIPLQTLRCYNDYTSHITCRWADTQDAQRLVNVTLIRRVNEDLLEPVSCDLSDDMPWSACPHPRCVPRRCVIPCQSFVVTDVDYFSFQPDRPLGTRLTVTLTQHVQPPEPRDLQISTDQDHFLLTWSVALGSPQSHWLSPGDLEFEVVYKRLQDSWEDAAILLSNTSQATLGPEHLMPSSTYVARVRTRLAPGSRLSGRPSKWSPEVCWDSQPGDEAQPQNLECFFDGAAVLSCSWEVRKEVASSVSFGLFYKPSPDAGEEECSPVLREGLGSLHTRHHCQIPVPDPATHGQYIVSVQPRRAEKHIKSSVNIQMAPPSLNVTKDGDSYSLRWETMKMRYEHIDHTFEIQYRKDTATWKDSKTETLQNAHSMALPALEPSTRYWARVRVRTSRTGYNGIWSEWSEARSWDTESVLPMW

His-tagged ECD of EPHB4 = target: T2, His-tagged ECD of EPHB4 (Homo sapiens (assumed), UniProt P54760); test: as above; conditions: both partners purified
T2 construct: receptor tyrosine kinase EPHB4, ectodomain
T2 sequence (P54760 16-539): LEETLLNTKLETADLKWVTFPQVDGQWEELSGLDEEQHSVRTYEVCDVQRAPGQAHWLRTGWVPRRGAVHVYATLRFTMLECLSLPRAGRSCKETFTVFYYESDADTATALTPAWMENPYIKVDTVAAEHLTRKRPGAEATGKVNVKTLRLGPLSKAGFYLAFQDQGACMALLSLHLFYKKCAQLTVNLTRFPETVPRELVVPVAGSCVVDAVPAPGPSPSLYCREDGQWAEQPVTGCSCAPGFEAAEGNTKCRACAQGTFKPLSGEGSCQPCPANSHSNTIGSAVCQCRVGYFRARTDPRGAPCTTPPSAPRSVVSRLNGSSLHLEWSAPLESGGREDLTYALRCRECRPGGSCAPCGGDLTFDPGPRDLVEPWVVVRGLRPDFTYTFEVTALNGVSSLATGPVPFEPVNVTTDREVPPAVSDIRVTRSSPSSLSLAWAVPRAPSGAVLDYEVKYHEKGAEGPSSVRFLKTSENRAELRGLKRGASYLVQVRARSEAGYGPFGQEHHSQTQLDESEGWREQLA

[2] = target: T3, human EPOR ectodomain (ECD) fused to a human Fc domain (EPOR-Fc) (human, UniProt P19235); test: BLI; results and legends: EPOR-Fc immobilised, Db-Fc in solution, 600 s association, 600 s dissociation, global 1:1 fit; methods: Abs captured on anti-human Fc sensors, His-EPOR in solution in 3-fold dilutions from 100 nM, 25°C, PBS 0.05% Tween 20; conditions: both partners purified
T3 construct: erythropoietin receptor (EPOR), human, ectodomain; Results and legends name EPOR-Fc as the immobilised protein of the ELISA and BLI experiments; the methods describe His-EPOR instead; also called human EPOR-Fc
T3 sequence (P19235 25-250): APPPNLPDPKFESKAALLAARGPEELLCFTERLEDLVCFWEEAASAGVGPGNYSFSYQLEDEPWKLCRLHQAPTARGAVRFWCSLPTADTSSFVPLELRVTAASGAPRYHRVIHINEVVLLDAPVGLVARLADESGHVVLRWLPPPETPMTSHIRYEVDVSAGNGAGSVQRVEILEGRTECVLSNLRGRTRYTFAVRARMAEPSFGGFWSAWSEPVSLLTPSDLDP

[3] = target: T3, human EPOR ectodomain (ECD) fused to a …; test: ELISA; EPOR-Fc (human or mouse) immobilised by results and legends, Db-Fc or VL–VH protein in solution (single point and serial dilutions), 1 h room temperature, PBST, anti-Fc-HRP; apparent affinities; the methods name His-EPOR as the coated protein; conditions: both partners purified

Binder	UT-7/Epo cell proliferation (ATP/luciferase luminescence), EC50 [1]	binding result (His-tagged ECD of CD131)	binding result (His-tagged ECD of EPHB4)	Kd [2]	EC50 [3]	binding result [2]
B1	0.2 nM	no binding	no binding	1.5 nM	1.5 nM	
B2				5 nM		
B3				1.8 nM		
B4	0.4 nM	no binding	no binding	5.1 nM	0.6 nM	
B5						binds
